# From the supplement of paper PMC9112550, “Optimization of the antimicrobial peptide Bac7 by deep mutational scanning” (BMC Biology, 2022)
# Tested on: Escherichia coli TOP10
# Assay: shrunken log2 fold change of peptide-encoding DNA abundance (4.5 h post-induction vs induction); higher = less antimicrobial activity (less host growth inhibition)
# Conditions: time post-induction: 4.5 h; library: site-saturation at positions 5, 18, 19, 20
# 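Also: peptides expressed intracellularly from a pBAD plasmid library in pooled LB shake-flask culture, induced with 0.3% L-arabinose, DNA abundance read by NGS, three biological replicates, DESeq2 with apeglm shrinkage.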
row,Sequence,shrunken log2 fold change
1,RRIRYRPPRLPRPRPRPDTMPRP,-0.0156
2,RRIRWRPPRLPRPRPRPEWGPRP,0.47
3,RRIRQRPPRLPRPRPRPPSWPRP,0.581
4,RRIRQRPPRLPRPRPRPMGAPRP,0.132
5,RRIRSRPPRLPRPRPRPGASPRP,0.418
6,RRIRDRPPRLPRPRPRPSWCPRP,-0.0805
7,RRIRMRPPRLPRPRPRPMAMPRP,0.0319
8,RRIRNRPPRLPRPRPRPDKGPRP,0.00408
9,RRIRGRPPRLPRPRPRPDGCPRP,0.792
10,RRIRNRPPRLPRPRPRPIYFPRP,-0.767
11,RRIRCRPPRLPRPRPRPRCEPRP,0.0872
12,RRIRARPPRLPRPRPRPVHNPRP,0.11
13,RRIRKRPPRLPRPRPRPTLPPRP,0.878
14,RRIRMRPPRLPRPRPRPIMYPRP,-0.171
15,RRIRLRPPRLPRPRPRPHYNPRP,-0.779
16,RRIRYRPPRLPRPRPRPYDRPRP,-0.039
17,RRIRTRPPRLPRPRPRPRVEPRP,0.073
18,RRIRIRPPRLPRPRPRPMWCPRP,-0.168
19,RRIRERPPRLPRPRPRPRSPPRP,0.0194
20,RRIRVRPPRLPRPRPRPSGKPRP,0.0575
21,RRIRERPPRLPRPRPRPMCRPRP,0.03
22,RRIRFRPPRLPRPRPRPRHWPRP,0.437
23,RRIRLRPPRLPRPRPRPQIAPRP,-0.0971
24,RRIRVRPPRLPRPRPRPLTGPRP,-0.396
25,RRIRSRPPRLPRPRPRPMRMPRP,0.323

row,Sequence,shrunken log2 fold change
1,RRIRCRPPRLPRPRPRPNAMPRP,0.0678
2,RRIRTRPPRLPRPRPRPGSKPRP,0.0896
3,RRIRGRPPRLPRPRPRPGTFPRP,0.222
4,RRIRRRPPRLPRPRPRPFGEPRP,0.412
5,RRIRGRPPRLPRPRPRPTSKPRP,0.69
6,RRIRTRPPRLPRPRPRPTDKPRP,-0.55
7,RRIRMRPPRLPRPRPRPYDKPRP,-0.351
8,RRIRHRPPRLPRPRPRPYKGPRP,-0.33
9,RRIRQRPPRLPRPRPRPSGMPRP,-0.143
10,RRIRHRPPRLPRPRPRPYAHPRP,-0.702
11,RRIRVRPPRLPRPRPRPSQMPRP,-0.0502
12,RRIRPRPPRLPRPRPRPHWTPRP,-0.119
13,RRIRRRPPRLPRPRPRPFLLPRP,0.0441
14,RRIRSRPPRLPRPRPRPLWDPRP,-0.134
15,RRIRGRPPRLPRPRPRPIPIPRP,0.0541
16,RRIRDRPPRLPRPRPRPCCWPRP,0.582
17,RRIRKRPPRLPRPRPRPAAKPRP,0.0103
18,RRIRWRPPRLPRPRPRPANPPRP,0.165
19,RRIRTRPPRLPRPRPRPAPKPRP,0.371
20,RRIRLRPPRLPRPRPRPFTKPRP,-0.00525
21,RRIRNRPPRLPRPRPRPGTAPRP,-0.0363
22,RRIRFRPPRLPRPRPRPLRSPRP,0.259
23,RRIRVRPPRLPRPRPRPDLNPRP,-0.233
24,RRIRNRPPRLPRPRPRPLGLPRP,-0.0325
25,RRIRFRPPRLPRPRPRPTKMPRP,0.0196

row,Sequence,shrunken log2 fold change
1,RRIRFRPPRLPRPRPRPNDMPRP,-0.388
2,RRIRHRPPRLPRPRPRPMTDPRP,-0.898
3,RRIRNRPPRLPRPRPRPENLPRP,0.00699
4,RRIRQRPPRLPRPRPRPPWDPRP,0.224
5,RRIRHRPPRLPRPRPRPDTPPRP,-0.0405
6,RRIRHRPPRLPRPRPRPFKEPRP,-0.289
7,RRIRLRPPRLPRPRPRPIPRPRP,0.0727
8,RRIRIRPPRLPRPRPRPIVGPRP,0.00911
9,RRIRWRPPRLPRPRPRPYNAPRP,-0.307
10,RRIRARPPRLPRPRPRPINTPRP,-0.631
11,RRIRSRPPRLPRPRPRPDACPRP,0.322
12,RRIRARPPRLPRPRPRPNKWPRP,-0.0519
13,RRIRMRPPRLPRPRPRPLEDPRP,2.77
14,RRIRARPPRLPRPRPRPGTGPRP,0.158
15,RRIRCRPPRLPRPRPRPPRNPRP,1.05
16,RRIRLRPPRLPRPRPRPECIPRP,-0.0423
17,RRIRCRPPRLPRPRPRPVFEPRP,-0.00537
18,RRIRERPPRLPRPRPRPWRQPRP,-0.00951
19,RRIRSRPPRLPRPRPRPLECPRP,-0.267
20,RRIRNRPPRLPRPRPRPAINPRP,0.0991
21,RRIRSRPPRLPRPRPRPAFEPRP,0.0595
22,RRIRVRPPRLPRPRPRPSTCPRP,-0.325
23,RRIRYRPPRLPRPRPRPQIEPRP,0.0413
24,RRIRPRPPRLPRPRPRPGAGPRP,0.555
25,RRIRARPPRLPRPRPRPPQNPRP,1.05
